Data reported in article PMC1976250 (Journal of neurochemistry, 2007).
Blank lines part the entries; values can stand above or below the binder they belong to.

Legend:
[1] = molecular target: GST-PICK1 (protein interacting with C-kinase 1) (UniProt Q9EP80 1-416); assay: pull-down
[2] = molecular target: T1, GST-GluR2 C-terminus (GST-R2C) (UniProt P19491 834-883); assay: pull-down
T1 chain (looked up): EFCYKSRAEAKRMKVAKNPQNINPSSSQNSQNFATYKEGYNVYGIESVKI

Chain of GST-PICK1 (protein interacting with C-kinase 1) (Q9EP80 whole entry): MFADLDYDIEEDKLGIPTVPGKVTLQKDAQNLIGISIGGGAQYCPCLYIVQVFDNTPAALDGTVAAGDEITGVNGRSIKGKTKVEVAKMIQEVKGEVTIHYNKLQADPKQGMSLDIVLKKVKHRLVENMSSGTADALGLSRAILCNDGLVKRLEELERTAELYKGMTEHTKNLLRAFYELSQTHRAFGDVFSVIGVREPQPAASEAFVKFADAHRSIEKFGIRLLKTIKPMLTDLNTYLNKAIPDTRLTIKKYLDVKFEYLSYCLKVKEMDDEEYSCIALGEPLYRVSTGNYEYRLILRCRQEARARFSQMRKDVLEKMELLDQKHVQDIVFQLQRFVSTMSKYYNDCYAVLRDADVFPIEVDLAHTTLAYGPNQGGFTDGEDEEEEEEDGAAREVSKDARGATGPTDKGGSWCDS

fold increase in binding at 15 μmol/L free Ca2+ compared with zero free Ca2+ [1]: ~7 fold
B1: his6β-SNAP (β soluble NSF attachment protein) (natural protein, UniProt P81126 1-298, looked up)
chain: MDNAGKEREAVQLMAEAEKRVKASHSFLRGLFGGNTRIEEACEMYTRAANMFKMAKNWSAAGNAFCQAAKLHMQLQSKHDSATSFVDAGNAYKKADPQEAINCLNAAIDIYTDMGRFTIAAKHHITIAEIYETELVDIEKAIAHYEQSADYYKGEESNSSANKCLLKVAAYAAQLEQYQKAIEIFEQIGANTMDNPLLKYSAKDYFFKAALCHFIVDELNAKLALEKYEEMFPAFTDSRECKLLKKLLEAHEEQNSEAYTEAVKEFDSISRLDQWLTTMLLRIKKSIQGDGEGDGDLK

binding at 15 μmol/L free Ca2+ relative to zero free Ca2+ [2]: 85%
B2: his6D142A NSF (enzyme, UniProt P18708 1-744, looked up)
chain: MAGRSMQAARCPTDELSLSNCAVVSEKDYQSGQHVIVRTSPNHKYIFTLRTHPSVVPGSVAFSLPQRKWAGLSIGQEIEVALYSFDKAKQCIGTMTIEIDFLQKKNIDSNPYDTDKMAAEFIQQFNNQAFSVGQQLVFSFNAKLFGLLVKDIEAMDPSILKGEPASGKRQKIEVGLVVGNSQVAFEKAENSSLNLIGKAKTKENRQSIINPDWNFEKMGIGGLDKEFSDIFRRAFASRVFPPEIVEQMGCKHVKGILLYGPPGCGKTLLARQIGKMLNAREPKVVNGPEILNKYVGESEANIRKLFADAEEEQRRLGANSGLHIIIFDEIDAICKQRGSMAGSTGVHDTVVNQLLSKIDGVEQLNNILVIGMTNRPDLIDEALLRPGRLEVKMEIGLPDEKGRLQILHIHTARMRGHQLLSADVDIKELAVETKNFSGAELEGLVRAAQSTAMNRHIKASTKVEVDMEKAESLQVTRGDFLASLENDIKPAFGTNQEDYASYIMNGIIKWGDPVTRVLDDGELLVQQTKNSDRTPLVSVLLEGPPHSGKTALAAKIAEESNFPFIKICSPDKMIGFSETAKCQAMKKIFDDAYKSQLSCVVVDDIERLLDYVPIGPRFSNLVLQALLVLLKKAPPQGRKLLIIGTTSRKDVLQEMEMLNAFSTTIHVPNIATGEQLLEALELLGNFKDKERTTIAQQVKGKKVWIGIKKLLMLIEMSLQMDPEYRVRKFLALLREEGASPLDFD
